Laboratory results: US20210277097A1
Substitutions are numbered along the chain they refer to.

B1: h5F9.1 (antibody, human IgG1, V domains shown)
VH: EVQLVESGGGVVQPGRSLRLSCAASGFTFSNYGMNWVRQAPGKGLEWVAMIYYDSSEKHYADSVKGRFTISRDNSKNTLYLQMNSLRAEDTAVYYCARGTTPDYWGQGTMVTVSS
VL: DIVMTQTPLSLSVTPGQPASISCRSSQSLEYSDGYTFLEWYLQKPGQSPQLLIYEVSNRFSGVPDRFSGSGSGTDFTLKISRVEAEDVGVYYCFQATHDPLTFGQGTKLEIKR
B2: h5F9.2 (antibody, human IgG1, V domains shown)
VH: B1 VH with V37I, V48I, A49G, R98K
VL: B1 VL
B3: h5F9.3 (antibody, human IgG1, V domains shown)
VH: B1 VH with V11L, R16G, A49S, R98K
VL: B1 VL
B4: h5F9.4 (antibody, human IgG1, V domains shown)
VH: B1 VH with V11L, R16G, V37I, V48I, A49G, R98K
VL: B1 VL
B5: h5F9.5 (antibody, human IgG1, V domains shown)
VH: B1 VH
VL: B1 VL with I2V, T7S, S12P, P15L, Y41F, L42Q, K44R, Q50R, L51R
B6: h5F9.6 (antibody, human IgG1, V domains shown)
VH: B1 VH with V37I, V48I, A49G, R98K
VL: B1 VL with I2V, T7S, S12P, P15L, Y41F, L42Q, K44R, Q50R, L51R
B7: h5F9.7 (antibody, human IgG1, V domains shown)
VH: B1 VH with V11L, R16G, A49S, R98K
VL: B1 VL with I2V, T7S, S12P, P15L, Y41F, L42Q, K44R, Q50R, L51R
B8: h5F9.8 (antibody, human IgG1, V domains shown)
VH: B1 VH with V11L, R16G, V37I, V48I, A49G, R98K
VL: B1 VL with I2V, T7S, S12P, P15L, Y41F, L42Q, K44R, Q50R, L51R
B9: h5F9.9 (antibody, human IgG1, V domains shown)
VH: B1 VH
VL: B1 VL with I2V, T7S, S12P, P15L
B10: h5F9.10 (antibody, human IgG1, V domains shown)
VH: B1 VH with V37I, V48I, A49G, R98K
VL: B1 VL with I2V, T7S, S12P, P15L
B11: h5F9.11 (antibody, human IgG1, V domains shown)
VH: B1 VH with V11L, R16G, A49S, R98K
VL: B1 VL with I2V, T7S, S12P, P15L
B12: h5F9.12 (antibody, human IgG1, V domains shown)
VH: B1 VH with V11L, R16G, V37I, V48I, A49G, R98K
VL: B1 VL with I2V, T7S, S12P, P15L
B13: h5F9.20 (antibody, human IgG1, V domains shown)
VH: B1 VH with V37I, V48I, A49G, R98K
VL: B1 VL with I2V, M4L, T7S, S12P, P15L, Y41F, L42Q, K44R, Q50R, L51R
B14: h5F9.22 (antibody, human IgG1, V domains shown)
VH: B1 VH with V37I, V48I, A49G, R98K
VL: B1 VL with I2V, M4L, T7S, S12P, P15L
B15: h5F9.26 (antibody, human IgG1, V domains shown)
VH: B1 VH with V11L, R16G, V37I, V48I, A49G, R98K
VL: B1 VL with I2V, M4L, T7S, S12P, P15L
B16: rat anti-human RGM A monoclonal antibody 8D1 (antibody, V domains shown)
VH: EVQLQQSGPELVKPGTSVKMSCKTSGYTFTSYVMHWVKQKPGQGLEWIGYIIPYNDNTKYNEKFKGKATLTSDKSSSTAYMELSSLTSEDSAVYYCARRNEYYGSSFFDYWGQGTTLTVSS
VL: DIQMTQSPASLSASLEEIVTITCQASQDIDNYLAWYHQKPGKSPRLLIYGATNLADGVPSRFSGSRSGTQFSLKINRLQIEDLGIYYCLQGYIPPRTFGGGTKLELKR
B17: rat anti-human RGM A monoclonal antibody 5F9 (antibody, V domains shown)
VH: EVQLVESGGGLVQPGSSLKLSCVASGFTFSNYGMNWIRQAPKKGLEWIGMIYYDSSEKHYADSVKGRFTISRDNSKNTLYLEMNSLRSEDTAIYYCAKGTTPDYWGQGVMVTVSS
VL: DVVLTQTPVSLSVTLGDQASMSCRSSQSLEYSDGYTFLEWFLQKPGQSPQLLIYEVSNRFSGVPDRFIGSGSGTDFTLKISRVEPEDLGVYYCFQATHDPLTFGSGTKLEIKR

What follows are binders tested against T1, recombinant purified human RGM A (R&D Systems Cat#2459-RM) (human) (UniProt Q96B86) (assay: competition ELISA on coated hRGMA; competitor: biotinylated chimeric 5F9).
T1 sequence: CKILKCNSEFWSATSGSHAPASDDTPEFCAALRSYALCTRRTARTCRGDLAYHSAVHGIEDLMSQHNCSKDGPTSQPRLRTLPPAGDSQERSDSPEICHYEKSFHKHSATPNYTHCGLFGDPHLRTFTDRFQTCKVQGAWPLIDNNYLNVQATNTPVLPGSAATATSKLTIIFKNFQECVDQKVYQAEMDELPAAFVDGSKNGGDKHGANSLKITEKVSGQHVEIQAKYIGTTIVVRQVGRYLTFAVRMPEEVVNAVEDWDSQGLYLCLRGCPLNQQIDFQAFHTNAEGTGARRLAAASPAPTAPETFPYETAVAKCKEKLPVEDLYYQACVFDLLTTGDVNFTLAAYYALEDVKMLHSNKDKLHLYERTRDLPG

| IC50 | Binder |
| --- | --- |
| > 10 µg/mL | B1 |
| > 10 µg/mL | B2 |
| > 10 µg/mL | B3 |
| > 10 µg/mL | B4 |
| > 10 µg/mL | B5 |
| > 10 µg/mL | B6 |
| > 10 µg/mL | B7 |
| > 10 µg/mL | B8 |
| > 10 µg/mL | B9 |
| > 10 µg/mL | B10 |
| > 10 µg/mL | B11 |
| > 10 µg/mL | B12 |
| > 2 µg/mL | B13 |
| > 2 µg/mL | B14 |
| > 2 µg/mL | B15 |

Each binder was assayed against rat RGM A expressed on BAF3 cells (rat) (assay: FACS on BAF3-ratRGMA stable cell line, unlabelled antibody, anti-rat IgG PE; unstained cells 4.71).

| Median, FL2-H | Binder |
| --- | --- |
| 5.37 | B16 |
| 29.6 | B17 |

Each binder was assayed against T1, recombinant purified human RGM A (R&D Systems Cat#2459-RM) (human) (assay: direct ELISA: plate coated with hRGM A 2 µg/mL, biotinylated antibody in 1:5 dilutions, streptavidin-HRP, TMB, OD 450).

| EC50 (read off the curve) | Binder |
| --- | --- |
| 0.2 µg/mL | B16 |
| 0.08 µg/mL | B17 |
